Laboratory results as given in publication PMC7010297, “How the initiating ribosome copes with ppGpp to translate mRNAs” (PLoS Biology, 2020).
Where “and” joins values, the source holds several entries; their conditions need not be identical. Identical values can stand only once. Like-named read-outs stand apart in the source and are kept apart here.

Columns and labels:
30S subunit (30S IC) = test: 30S IC formation by MST, mRNA titration; assay type: binding, Escherichia coli; settings: for MST Average / MST Replicates (a.u.): Fig 3B; for Kd: Fig 3C, from mRNA titration of 30S IC formation; for 30S IC formation MST signal, Average / 30S IC formation MST signal, replicates: Fig 6D
Source text: Fig 1 Bacterial stringent response and experimental approach. (A) Schematics representing the onset of stringent response, (p)ppGpp accumulation, and gene expression regulation. Translation of stress-related mRNAs upon (p)ppGpp accumulating is the focus of the investigation (indicated as the red question mark). (B) Schematics of instrumentation for measuring 30S initiation complex (IC) by fluorescence Microscale Thermophoresis (MST) (provided by Nanotemper Technologies). […] Fluorophore excitation and measurement of the emitted fluorescence, together with IR-mediated perturbation of the equilibrium, are achieved through an objective and dichroic mirror. (C) Time courses of fluorescence showing the equilibrium relaxation upon thermal perturbation at varying ligand concentrations. Blue vertical lines indicate the fluorescence signal readout prior to the equilibrium perturbation (Fi), while vertical red lines indicate the fluorescence signal upon reaching the new equilibrium (Ff). Colored traces represent different concentrations of the titrating mRNA (0.1 to 4 μM). The ratio between the Ff over Fi times 1,000 is the normalized thermophoresis shift (MST). The dependency of MST shift on ligand concentration allows to estimate KD constants of the interaction using a hyperbolic or quadratic function and nonlinear regression fitting. MST measurements (closed circles) are indicated in the same colors as their respective time traces in (C). (D) Formation of 30S IC measured by MST. Time traces of thermophoresis (S1 Fig) were used to calculate MST values for all four combinations of mRNA start codons and labeled tRNAs for dependencies on mRNA concentration. […] Closed symbols indicate that Bpy-Met-tRNA^fMet was used, while open symbols correspond to Bpy-Phe-tRNA^Phe. Continuous lines indicate nonlinear regression fittings. Three to four measurements were performed; mean and error bars representing standard deviations are plotted (S1 Data).
To monitor the interaction of initiator tRNA and 30S ribosomal subunits, we used Microscale Thermophoresis (MST) with a fluorescently labelled initiator tRNA (Bpy-tRNAi) (Fig 1B). MST allows to measure fluorescence in a constrained space. Changes on the readout derive from molecular drifts resulting from small thermal equilibrium perturbations. Upon equilibrium perturbations, the patterns of Bpy-tRNAi migration away from the observation space are related to bound and unbound states (Fig 1B). […] On the contrary, a decrease in thermophoresis indicated the dissociation of Bpy-tRNAi. The relation between fluorescence measured at both equilibriums (Ff to Fi, after and prior to the perturbation, respectively) as a function of ligand concentration allowed to determine dissociation constants of the interaction (Fig 1C).
By observing the bound state of Bpy-tRNAi to the 30S subunit, MST could be measuring either IC, 30S pre-IC, or 30S IC, as they are identical in terms of ligand composition. […] To unambiguously assign which step is monitored by MST, we used different combinations of start codons and fluorescent tRNAs.
MST was calculated from the respective fluorescence time dependencies (S3 Fig). […] Symbols as in (B). […] Continuous lines indicate nonlinear regression fittings with quadratic (B and E) or same-site competition (G) functions. Three measurements were performed; mean and standard deviations are plotted (S1 Data).

[1] = tested on: mRNA translation (protein synthesis); test: In vitro translation in pure cell-free system (PURExpress, Lumio labelling); assay type: biochemical; settings: 2 mM ppGpp; Fig 6G
[2] = Fig 3D, efficiency of 30S IC formation

B1: mTufA: TufA mRNA with full-length 5′ UTR, in vitro transcribed, codes for EF-Tu (nucleic acid)
chain: GGUUCUAUCGCCUUUAAAGAAGGCUUUAAGAAAGCGAAACCAGUUCUGCUUGAGCCGAUCAUGAAGGUUGAAGUAGAAACUCCGGAAGAGAACACCGGUGACGUUAUCGGUGACUUGAGCCGUCGUCGUGGUAUGCUCAAAGGUCAGGAAUCUGAAGUUACUGGCGUUAAGAUCCACGCUGAAGUACCGCUGUCUGAAAUGUUCGGAUACGCAACUCAGCUGCGUUCUCUGACCAAAGGUCGUGCAUCAUACACUAUGGAAUUCCUGAAGUAUGAUGAAGCGCCGAGUAACGUUGCUCAGGCCGUAAUUGAAGCCCGUGGUAAAUAAGCCUAAGGGUUAAUACCAAAGUCCCGUGCUCUCUCCUGAAGGGGAGAGCACUAUAGUAAGGAAUAUAGCCGUGUCUAAAGAAAAAUUUGAACG
- MST Average (30S subunit (30S IC); mRNA 0.004 μM): 969.58 a.u.
- MST Replicates (a.u.) (30S subunit (30S IC); mRNA 0.004 μM): 968.54 a.u. and 970.25 a.u. and 969.97 a.u.
- MST Average (30S subunit (30S IC); mRNA 0.008 μM): 969.59 a.u.
- MST Replicates (a.u.) (30S subunit (30S IC); mRNA 0.008 μM): 969.28 a.u. and 969.63 a.u. and 969.86 a.u.
- MST Average (30S subunit (30S IC); mRNA 0.016 μM): 972.78 a.u.
- MST Replicates (a.u.) (30S subunit (30S IC); mRNA 0.016 μM): 971.79 a.u. and 972.82 a.u. and 973.72 a.u.
- MST Average (30S subunit (30S IC); mRNA 0.03 μM): 974.49 a.u.
- MST Replicates (a.u.) (30S subunit (30S IC); mRNA 0.03 μM): 974.10 a.u. and 974.12 a.u. and 975.24 a.u.
- MST Average (30S subunit (30S IC); mRNA 0.06 μM): 982.70 a.u.
- MST Replicates (a.u.) (30S subunit (30S IC); mRNA 0.06 μM): 982.27 a.u. and 982.61 a.u. and 983.22 a.u.
- MST Average (30S subunit (30S IC); mRNA 0.13 μM): 997.76 a.u.
- MST Replicates (a.u.) (30S subunit (30S IC); mRNA 0.13 μM): 996.79 a.u. and 997.90 a.u. and 998.61 a.u.
- MST Average (30S subunit (30S IC); mRNA 0.25 μM): 1022.60 a.u.
- MST Replicates (a.u.) (30S subunit (30S IC); mRNA 0.25 μM): 1021.41 a.u. and 1022.36 a.u. and 1024.04 a.u.
- MST Average (30S subunit (30S IC); mRNA 0.50 μM): 1057.58 a.u.
- MST Replicates (a.u.) (30S subunit (30S IC); mRNA 0.50 μM): 1056.44 a.u. and 1057.96 a.u. and 1058.33 a.u.
- MST Average (30S subunit (30S IC); mRNA 1.00 μM): 1095.54 a.u.
- MST Replicates (a.u.) (30S subunit (30S IC); mRNA 1.00 μM): 1094.17 a.u. and 1095.62 a.u. and 1096.83 a.u.
- MST Average (30S subunit (30S IC); mRNA 2.00 μM): 1113.87 a.u.
- MST Replicates (a.u.) (30S subunit (30S IC); mRNA 2.00 μM): 1113.37 a.u. and 1113.82 a.u. and 1114.42 a.u.
- Kd (30S subunit (30S IC); read-out: Kd (μM) of the mRNA, Average): 0.19 µM
- Kd (30S subunit (30S IC); read-out: Kd (μM) of the mRNA, single replicate): 0.19 µM and 0.18 µM
- MST Amplitude (a.u.), Average (30S subunit (30S IC); [2]): 165.04 a.u.
- MST Amplitude (a.u.), single replicate (30S subunit (30S IC); [2]): 165.44 a.u. and 164.97 a.u. and 164.70 a.u.
- 30S IC formation MST signal, Average (30S subunit (30S IC); mRNA 0.001 µM): 934.16
- 30S IC formation MST signal, replicates (30S subunit (30S IC); mRNA 0.001 µM): 933.97 and 934.33 and 934.18
- 30S IC formation MST signal, Average (30S subunit (30S IC); mRNA 0.002 µM): 931.08
- 30S IC formation MST signal, replicates (30S subunit (30S IC); mRNA 0.002 µM): 929.08 and 931.16 and 933.00
- 30S IC formation MST signal, Average (30S subunit (30S IC); mRNA 0.004 µM): 929.10
- 30S IC formation MST signal, replicates (30S subunit (30S IC); mRNA 0.004 µM): 927.65 and 929.57 and 930.10
- 30S IC formation MST signal, Average (30S subunit (30S IC); mRNA 0.008 µM): 927.54
- 30S IC formation MST signal, replicates (30S subunit (30S IC); mRNA 0.008 µM): 923.84 and 929.70 and 929.07
- 30S IC formation MST signal, Average (30S subunit (30S IC); mRNA 0.016 µM): 926.63
- 30S IC formation MST signal, replicates (30S subunit (30S IC); mRNA 0.016 µM): 924.56 and 926.45 and 928.88
- 30S IC formation MST signal, Average (30S subunit (30S IC); mRNA 0.031 µM): 928.44
- 30S IC formation MST signal, replicates (30S subunit (30S IC); mRNA 0.031 µM): 928.15 and 928.36 and 928.82
- 30S IC formation MST signal, Average (30S subunit (30S IC); mRNA 0.062 µM): 934.74
- 30S IC formation MST signal, replicates (30S subunit (30S IC); mRNA 0.062 µM): 934.59 and 934.05 and 935.59
- 30S IC formation MST signal, Average (30S subunit (30S IC); mRNA 0.125 µM): 947.53
- 30S IC formation MST signal, replicates (30S subunit (30S IC); mRNA 0.125 µM): 949.07 and 946.54 and 946.98
- 30S IC formation MST signal, Average (30S subunit (30S IC); mRNA 0.25 µM): 962.80
- 30S IC formation MST signal, replicates (30S subunit (30S IC); mRNA 0.25 µM): 964.74 and 961.64 and 962.03
- 30S IC formation MST signal, Average (30S subunit (30S IC); mRNA 0.5 µM): 989.99
- 30S IC formation MST signal, replicates (30S subunit (30S IC); mRNA 0.5 µM): 993.30 and 987.37 and 989.30
- 30S IC formation MST signal, Average (30S subunit (30S IC); mRNA 1 µM): 1011.86
- 30S IC formation MST signal, replicates (30S subunit (30S IC); mRNA 1 µM): 1011.95 and 1011.22 and 1012.39
- 30S IC formation MST signal, Average (30S subunit (30S IC); mRNA 2 µM): 1036.12
- 30S IC formation MST signal, replicates (30S subunit (30S IC); mRNA 2 µM): 1039.43 and 1034.52 and 1034.41
- Translation Replicate [1]: 0.27 a.u.
